Patent US20180193423A1 (LONGEVITY BIOTECH, published 2018)
Like-named read-outs stand apart in the source and are kept apart here. Where no end group is shown, it is not given here. [ ]: non-standard residue; d: D form. APC = 3-aminopyrrolidine-4-carboxylic acid; ACPC = 2-aminocyclopentanecarboxylic acid; β3hT = C[C@@H](O)[C@H](N)CC(=O)O; β3hN = NC(=O)C[C@H](N)CC(=O)O; β3hL = CC(C)C[C@H](N)CC(=O)O; β3hK = NCCCC[C@H](N)CC(=O)O; β3hV = CC(C)[C@H](N)CC(=O)O; β3hD = NC(CC(=O)O)CC(=O)O; β3hS = N[C@@H](CO)CC(=O)O; Aib = CC(C)(N)C(=O)O; βAla = NCCC(=O)O

Tests used:
Assay in all cases: cell-based or functional assay
VPAC2 receptor [1] = target: T1, VPAC2 receptor (UniProt P41587 24-438, limits assumed)
T1 sequence (looked up): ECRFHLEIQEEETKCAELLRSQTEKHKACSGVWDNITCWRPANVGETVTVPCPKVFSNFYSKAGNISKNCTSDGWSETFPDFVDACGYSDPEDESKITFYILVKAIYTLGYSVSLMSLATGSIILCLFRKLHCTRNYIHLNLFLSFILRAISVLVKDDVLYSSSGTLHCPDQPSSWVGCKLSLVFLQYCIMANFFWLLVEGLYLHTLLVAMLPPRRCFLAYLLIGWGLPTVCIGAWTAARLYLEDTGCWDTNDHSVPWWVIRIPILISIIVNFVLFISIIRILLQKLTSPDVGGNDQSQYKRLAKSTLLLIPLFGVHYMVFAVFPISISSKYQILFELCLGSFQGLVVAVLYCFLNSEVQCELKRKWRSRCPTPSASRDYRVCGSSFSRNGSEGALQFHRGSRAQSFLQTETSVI

VPAC1 receptor [2] = target: T2, VPAC1 receptor (UniProt P32241 31-457, limits assumed)
T2 sequence (looked up): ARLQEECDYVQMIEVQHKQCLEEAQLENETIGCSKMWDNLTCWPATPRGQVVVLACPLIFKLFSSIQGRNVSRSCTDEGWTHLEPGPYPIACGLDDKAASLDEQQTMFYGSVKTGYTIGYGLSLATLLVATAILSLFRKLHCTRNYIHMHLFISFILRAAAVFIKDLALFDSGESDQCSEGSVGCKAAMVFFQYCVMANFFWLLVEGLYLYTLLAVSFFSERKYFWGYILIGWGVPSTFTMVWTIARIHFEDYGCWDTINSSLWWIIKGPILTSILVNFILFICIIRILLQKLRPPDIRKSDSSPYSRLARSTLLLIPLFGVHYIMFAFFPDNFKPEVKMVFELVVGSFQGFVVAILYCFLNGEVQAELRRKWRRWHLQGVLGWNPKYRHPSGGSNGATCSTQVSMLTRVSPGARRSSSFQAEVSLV

VPAC1 receptor [3] = target: T2, VPAC1 receptor; remark: listed apart in the source
VPAC2 receptor [4] = target: T1, VPAC2 receptor; remark: listed apart in the source
VPAC1 receptor [5] = target: T2, VPAC1 receptor; remark: listed apart in the source

| Binder | EC50 vpac2 (Molar), cell-based cAMP assay (VPAC2 receptor [1]) | EC 50 vpac1 (Molar), cell-based cAMP assay (VPAC1 receptor [2]) | EC50 of ligand mediated receptor internalization (chemiluminescent signal, PathHunter eXpress CHO-K1 VIPR1 cells) (VPAC1 receptor [3]) | EC50 vpac2 (Molar), cell-based cAMP assay (VPAC2 receptor [4]) | EC 50 vpac1 (Molar), cell-based cAMP assay (VPAC1 receptor [5]) |
| --- | --- | --- | --- | --- | --- |
| HS[β3hD]AVF[β3hT]DNY[β3hT]RLR[β3hK]QLA[β3hV]KKY[β3hL]NAI[β3hL]N (not fully specified (C-terminus); printed as HSdAVFtDNYtRLRkQLAvKKYlNAIlN) [LBT-V107] | > 1 µM | > 1 µM |  |  |  |
| HSDAVFTDNY[β3hT]RLR[β3hK]QLA[β3hV]KKY[β3hL]NAI[β3hL]N (not fully specified (C-terminus); printed as HSDAVFTDNYtRLRkQLAvKKYlNAIlN) [LBT-V101] | 8260 µM | 0.00217 µM | 0.0102 µM |  |  |
| H[dF]DAVFTDNY[β3hT]RLR[β3hK]QLA[β3hV]KKY[β3hL]NAI[β3hL]N (not fully specified (C-terminus); printed as HfDAVFTDNYtRLRkQLAvKKYlNAIlN) [LBT-V126] | 0.344 µM | 619 µM |  |  |  |
| H[ACPC]DAVFTDNY[β3hT]RLR[β3hK]QLA[β3hV]KKY[β3hL]NAI[β3hL]N (not fully specified (C-terminus); printed as HxDAVFTDNYtRLRkQLAvKKYlNAIlN) [LBT-V102] | 4.9 µM | 0.00566 µM |  |  |  |
| H[dF]DA[ACPC]FTDNY[β3hT]RLR[β3hK]QLA[β3hV]KKY[β3hL]NAI[β3hL]N (not fully specified (C-terminus); printed as HfDAxFTDNYtRLRkQLAvKKYlNAIlN) [LBT-V127] | > 1 µM | 0.0893 µM |  |  |  |
| H[ACPC]DA[β3hV]FTDNY[β3hT]RLR[β3hK]QLA[β3hV]KKY[β3hL]NAI[β3hL]N (not fully specified (C-terminus); printed as HxDAvFTDNYtRLRkQLAvKKYlNAIlN) [LBT-V104] | 0.262 µM | 0.00443 µM |  |  |  |
| H[β3hS]DA[β3hV]FTD[β3hN]Y[β3hT]RLR[β3hK]QLA[β3hV]KKY[β3hL]NAI[β3hL]N (not fully specified (C-terminus); printed as HsDAvFTDnYtRLRkQLAvKKYlNAIlN) [LBT-V106] | 0.503 µM | 298 µM |  |  |  |
| H[ACPC]DA[ACPC]FTDNY[β3hT]RLR[β3hK]QLA[β3hV]KKY[β3hL]NAI[β3hL]N (not fully specified (C-terminus); printed as HxDAxFTDNYtRLRkQLAvKKYlNAIlN) [LBT-V103] | 0.0796 µM | 0.000358 µM |  |  |  |
| H[β3hS]DA[β3hV]FTDNY[β3hT]RLR[β3hK]QLA[β3hV]KKY[β3hL]NAI[β3hL]N (not fully specified (C-terminus); printed as HsDAvFTDNYtRLRkQLAvKKYlNAIlN) [LBT-V105] | 0.716 µM | 0.0644 µM |  |  |  |

Second part, the binder after the results:

| EC50 vpac2 (Molar), cell-based cAMP assay (VPAC2 receptor [1]) | EC 50 vpac1 (Molar), cell-based cAMP assay (VPAC1 receptor [2]) | EC50 of ligand mediated receptor internalization (chemiluminescent signal, PathHunter eXpress CHO-K1 VIPR1 cells) (VPAC1 receptor [3]) | EC50 vpac2 (Molar), cell-based cAMP assay (VPAC2 receptor [4]) | EC 50 vpac1 (Molar), cell-based cAMP assay (VPAC1 receptor [5]) | Binder |
| --- | --- | --- | --- | --- | --- |
| 0.989 µM | > 1 µM |  |  |  | H[dF]DA[β3hV]FTD[β3hN]Y[β3hT]RLR[β3hK]QLA[β3hV]KKY[β3hL]NAI[β3hL]N (not fully specified (C-terminus); printed as HfDAvFTDnYtRLRkQLAvKKYlNAIlN) [LBT-V129] |
|  |  |  | 0.000529 µM | 0.516 µM | Ac-H[Aib]DAVFTENYTKLRKQLAA[APC]KY[ACPC]NDL[β3hK]KG[βAla]T (not fully specified (C-terminus); printed as Ac-HBDAVFTENYTKLRKQLAAzKYxNDLkKGgT) [LBT-V204] |
| 0.609 µM | 0.912 µM |  |  |  | H[dF][β3hD]AVF[β3hT]DNY[β3hT]RLR[β3hK]QLA[β3hV]KKY[β3hL]NAI[β3hL]N (not fully specified (C-terminus); printed as HfdAVFtDNYtRLRkQLAvKKYlNAIlN) [LBT-V130] |
| 0.0503 µM | 0.0712 µM |  |  |  | H[dF]DA[β3hV]FTDNY[β3hT]RLR[β3hK]QLA[β3hV]KKY[β3hL]NAI[β3hL]N (not fully specified (C-terminus); printed as HfDAvFTDNYtRLRkQLAvKKYlNAIlN) [LBT-V128] |
